Data published in the supplement of paper PMC10567573.

B1: TSN (parent)
chain: FLAAEQDIREEIRKVVQSLEQTAR

Variants of: B1
Test: protein stability index of a GFP-peptide fusion (GPS, HEK-293T) (PSI 1-6); higher = more stable
Settings: c terminus: a fixed tail appended
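Further: lentivirally expressed fusions sorted by FACS into six bins by GFP to DsRed ratio, PSI derived from sequencing read proportions per bin multiplied by bin number.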

Going from FLAAEHDIREEIRKVVQSLEQTAR [Q6H] to FLAAEIDIREEIRKVVQSLEQTAR [Q6I], the protein stability index rises from 1.63 to 2.1.

First: FLAAEKDIREEIRKVVQSLEQTAR [Q6K]
Second: FLAAELDIREEIRKVVQSLEQTAR [Q6L]
The protein stability index of the first is lower: 1.78 for the first, 1.99 for the second.

First: FLAAEMDIREEIRKVVQSLEQTAR [Q6M]
Second: FLAAENDIREEIRKVVQSLEQTAR [Q6N]
The protein stability index of the first is lower: 1.86 for the first, 1.91 for the second.

Going from FLAAEPDIREEIRKVVQSLEQTAR [Q6P] to FLAAERDIREEIRKVVQSLEQTAR [Q6R], the protein stability index falls from 2.85 to 2.53.

First: FLAAESDIREEIRKVVQSLEQTAR [Q6S]
Second: FLAAETDIREEIRKVVQSLEQTAR [Q6T]
The protein stability index of the first is higher: 2.25 for the first, 1.46 for the second.

First: FLAAEVDIREEIRKVVQSLEQTAR [Q6V]
Second: FLAAEWDIREEIRKVVQSLEQTAR [Q6W]
The protein stability index of the first is lower: 1.79 for the first, 2.75 for the second.

Going from FLAAEYDIREEIRKVVQSLEQTAR [Q6Y] to FLAAEQAIREEIRKVVQSLEQTAR [D7A], the protein stability index rises from 2.09 to 2.18.

First: FLAAEQCIREEIRKVVQSLEQTAR [D7C]
Second: FLAAEQEIREEIRKVVQSLEQTAR [D7E]
The protein stability index of the first is higher: 2.28 for the first, 1.89 for the second.

First: FLAAEQFIREEIRKVVQSLEQTAR [D7F]
Second: FLAAEQGIREEIRKVVQSLEQTAR [D7G]
The protein stability index of the first is higher: 2.52 for the first, 2.22 for the second.

Going from FLAAEQHIREEIRKVVQSLEQTAR [D7H] to FLAAEQIIREEIRKVVQSLEQTAR [D7I], the protein stability index rises from 2.78 to 2.93.

First: FLAAEQKIREEIRKVVQSLEQTAR [D7K]
Second: FLAAEQLIREEIRKVVQSLEQTAR [D7L]
The protein stability index of the first is lower: 1.51 for the first, 3.27 for the second.

First: FLAAEQMIREEIRKVVQSLEQTAR [D7M]
Second: FLAAEQNIREEIRKVVQSLEQTAR [D7N]
The protein stability index of the first is lower: 1.73 for the first, 2.05 for the second.

First: FLAAEQPIREEIRKVVQSLEQTAR [D7P]
Second: FLAAEQQIREEIRKVVQSLEQTAR [D7Q]
The protein stability index of the first is higher: 2.22 for the first, 1.3 for the second.

Going from FLAAEQRIREEIRKVVQSLEQTAR [D7R] to FLAAEQSIREEIRKVVQSLEQTAR [D7S], the protein stability index falls from 2.35 to 1.79.

First: FLAAEQTIREEIRKVVQSLEQTAR [D7T]
Second: FLAAEQVIREEIRKVVQSLEQTAR [D7V]
The protein stability index of the first is lower: 1.75 for the first, 2.13 for the second.

First: FLAAEQWIREEIRKVVQSLEQTAR [D7W]
Second: FLAAEQYIREEIRKVVQSLEQTAR [D7Y]
The protein stability index of the first is lower: 2.21 for the first, 2.44 for the second.

First: FLAAEQDAREEIRKVVQSLEQTAR [I8A]
Second: FLAAEQDCREEIRKVVQSLEQTAR [I8C]
The protein stability index of the first is higher: 3.02 for the first, 2.56 for the second.

Compared with FLAAEQDDREEIRKVVQSLEQTAR [I8D], FLAAEQDEREEIRKVVQSLEQTAR [I8E] is higher in protein stability index: 3.44 for the first, 3.64 for the second.

First: FLAAEQDFREEIRKVVQSLEQTAR [I8F]
Second: FLAAEQDGREEIRKVVQSLEQTAR [I8G]
The protein stability index of the first is lower: 2.57 for the first, 4.12 for the second.

Compared with FLAAEQDHREEIRKVVQSLEQTAR [I8H], FLAAEQDKREEIRKVVQSLEQTAR [I8K] is lower in protein stability index: 3.17 for the first, 2.56 for the second.

Going from FLAAEQDLREEIRKVVQSLEQTAR [I8L] to FLAAEQDMREEIRKVVQSLEQTAR [I8M], the protein stability index falls from 2.02 to 1.73.

First: FLAAEQDNREEIRKVVQSLEQTAR [I8N]
Second: FLAAEQDPREEIRKVVQSLEQTAR [I8P]
The protein stability index of the first is higher: 4.12 for the first, 3.41 for the second.

Compared with FLAAEQDQREEIRKVVQSLEQTAR [I8Q], FLAAEQDRREEIRKVVQSLEQTAR [I8R] is lower in protein stability index: 3.16 for the first, 3.15 for the second.

Compared with FLAAEQDSREEIRKVVQSLEQTAR [I8S], FLAAEQDTREEIRKVVQSLEQTAR [I8T] is lower in protein stability index: 3.33 for the first, 2.78 for the second.

Going from FLAAEQDVREEIRKVVQSLEQTAR [I8V] to FLAAEQDWREEIRKVVQSLEQTAR [I8W], the protein stability index rises from 2.17 to 2.65.

First: FLAAEQDYREEIRKVVQSLEQTAR [I8Y]
Second: FLAAEQDIAEEIRKVVQSLEQTAR [R9A]
The protein stability index of the first is higher: 2.42 for the first, 1.48 for the second.

Compared with FLAAEQDICEEIRKVVQSLEQTAR [R9C], FLAAEQDIDEEIRKVVQSLEQTAR [R9D] is higher in protein stability index: 1.43 for the first, 2.31 for the second.

First: FLAAEQDIEEEIRKVVQSLEQTAR [R9E]
Second: FLAAEQDIFEEIRKVVQSLEQTAR [R9F]
The protein stability index of the first is lower: 1.69 for the first, 2.4 for the second.

Going from FLAAEQDIGEEIRKVVQSLEQTAR [R9G] to FLAAEQDIHEEIRKVVQSLEQTAR [R9H], the protein stability index falls from 3.12 to 1.49.

Going from FLAAEQDIIEEIRKVVQSLEQTAR [R9I] to FLAAEQDIKEEIRKVVQSLEQTAR [R9K], the protein stability index rises from 1.84 to 2.69.

Going from FLAAEQDILEEIRKVVQSLEQTAR [R9L] to FLAAEQDIMEEIRKVVQSLEQTAR [R9M], the protein stability index falls from 2.26 to 2.11.

First: FLAAEQDINEEIRKVVQSLEQTAR [R9N]
Second: FLAAEQDIPEEIRKVVQSLEQTAR [R9P]
The protein stability index of the first is lower: 2.28 for the first, 3.1 for the second.

First: FLAAEQDIQEEIRKVVQSLEQTAR [R9Q]
Second: FLAAEQDISEEIRKVVQSLEQTAR [R9S]
The protein stability index of the first is lower: 2.04 for the first, 2.26 for the second.

First: FLAAEQDITEEIRKVVQSLEQTAR [R9T]
Second: FLAAEQDIVEEIRKVVQSLEQTAR [R9V]
The protein stability index of the first is higher: 2.06 for the first, 1.75 for the second.

First: FLAAEQDIWEEIRKVVQSLEQTAR [R9W]
Second: FLAAEQDIYEEIRKVVQSLEQTAR [R9Y]
The protein stability index of the first is lower: 1.64 for the first, 2.29 for the second.

Compared with FLAAEQDIRAEIRKVVQSLEQTAR [E10A], FLAAEQDIRCEIRKVVQSLEQTAR [E10C] is higher in protein stability index: 2.11 for the first, 2.47 for the second.

Compared with FLAAEQDIRDEIRKVVQSLEQTAR [E10D], FLAAEQDIRFEIRKVVQSLEQTAR [E10F] is lower in protein stability index: 1.63 for the first, 1.35 for the second.

Compared with FLAAEQDIRGEIRKVVQSLEQTAR [E10G], FLAAEQDIRHEIRKVVQSLEQTAR [E10H] is lower in protein stability index: 2.92 for the first, 2.5 for the second.

Compared with FLAAEQDIRIEIRKVVQSLEQTAR [E10I], FLAAEQDIRKEIRKVVQSLEQTAR [E10K] is higher in protein stability index: 1.53 for the first, 2.15 for the second.

Compared with FLAAEQDIRLEIRKVVQSLEQTAR [E10L], FLAAEQDIRMEIRKVVQSLEQTAR [E10M] is lower in protein stability index: 1.96 for the first, 1.88 for the second.

Compared with FLAAEQDIRNEIRKVVQSLEQTAR [E10N], FLAAEQDIRPEIRKVVQSLEQTAR [E10P] is higher in protein stability index: 2.12 for the first, 3.21 for the second.

Compared with FLAAEQDIRQEIRKVVQSLEQTAR [E10Q], FLAAEQDIRREIRKVVQSLEQTAR [E10R] is higher in protein stability index: 1.85 for the first, 2.06 for the second.

First: FLAAEQDIRSEIRKVVQSLEQTAR [E10S]
Second: FLAAEQDIRTEIRKVVQSLEQTAR [E10T]
The protein stability index of the first is lower: 2.33 for the first, 2.83 for the second.

Compared with FLAAEQDIRVEIRKVVQSLEQTAR [E10V], FLAAEQDIRWEIRKVVQSLEQTAR [E10W] is lower in protein stability index: 2.39 for the first, 2.08 for the second.

Going from FLAAEQDIRYEIRKVVQSLEQTAR [E10Y] to FLAAEQDIREAIRKVVQSLEQTAR [E11A], the protein stability index rises from 1.96 to 2.02.

Compared with FLAAEQDIRECIRKVVQSLEQTAR [E11C], FLAAEQDIREDIRKVVQSLEQTAR [E11D] is higher in protein stability index: 2.21 for the first, 2.77 for the second.

Going from FLAAEQDIREFIRKVVQSLEQTAR [E11F] to FLAAEQDIREGIRKVVQSLEQTAR [E11G], the protein stability index rises from 1.59 to 2.68.
